Reference: publication PMC4894655, “Three proliferating cell nuclear antigen homologues from Metallosphaera sedula form a head-to-tail heterotrimer” (Scientific Reports, 2016)

Assays:
SsoPCNA2 [1] = target: T1, SsoPCNA2 (Sulfolobus solfataricus); assay: SPR; 5 nM SsoPCNA1
T1 chain: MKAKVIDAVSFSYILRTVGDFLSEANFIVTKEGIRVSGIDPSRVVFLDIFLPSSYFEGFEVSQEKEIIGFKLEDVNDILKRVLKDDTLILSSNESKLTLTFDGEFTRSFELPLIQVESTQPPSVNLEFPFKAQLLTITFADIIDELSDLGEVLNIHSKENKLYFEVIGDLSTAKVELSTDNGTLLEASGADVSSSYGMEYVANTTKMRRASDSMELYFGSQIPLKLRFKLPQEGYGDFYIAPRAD

MsePCNA2 [2] = target: T2, MsePCNA2 (Metallosphaera sedula, UniProt A4YHP5 1-244); assay: SPR; 10 nM SsoPCNA1
T2 chain: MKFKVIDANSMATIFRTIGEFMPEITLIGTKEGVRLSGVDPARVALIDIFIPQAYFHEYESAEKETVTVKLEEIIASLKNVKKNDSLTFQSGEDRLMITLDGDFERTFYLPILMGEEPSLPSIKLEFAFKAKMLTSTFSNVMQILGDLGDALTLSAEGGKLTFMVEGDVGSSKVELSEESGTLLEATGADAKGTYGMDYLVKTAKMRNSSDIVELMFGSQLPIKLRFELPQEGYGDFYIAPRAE

SsoPCNA2 [3] = target: T1, SsoPCNA2; assay: SPR; Biacore; about 350 RU of MsePCNA2 or SsoPCNA2 immobilised on Sensor Chip CM5; MsePCNA1 or SsoPCNA1 injected (2.5, 5, 10, 20, 40 nM), kinetic fit; 10 mM HEPES-HCl pH 7.4, 150 mM NaCl
SsoPCNA2 [4] = target: T1, SsoPCNA2; assay: SPR; 20 nM SsoPCNA1
MsePCNA2 [5] = target: T2, MsePCNA2; assay: SPR; 20 nM SsoPCNA1
MsePCNA2 [6] = target: T2, MsePCNA2; assay: SPR; 75 nM SsoPCNA1
SsoPCNA2 [7] = target: T1, SsoPCNA2; assay: SPR; 10 nM SsoPCNA1
MsePCNA2 [8] = target: T2, MsePCNA2; assay: SPR; 10 nM SsoPCNA1
SsoPCNA2 [9] = target: T1, SsoPCNA2; assay: SPR; 75 nM SsoPCNA1
MsePCNA2 [10] = target: T2, MsePCNA2; assay: SPR; 75 nM SsoPCNA1
SsoPCNA2 [11] = target: T1, SsoPCNA2; assay: SPR; 20 nM SsoPCNA1
MsePCNA2 [12] = target: T2, MsePCNA2; assay: SPR; 20 nM SsoPCNA1
MsePCNA2 [13] = target: T2, MsePCNA2; assay: SPR; 40 nM SsoPCNA1
SsoPCNA2 [14] = target: T1, SsoPCNA2; assay: SPR; 40 nM SsoPCNA1
SsoPCNA2 [15] = target: T1, SsoPCNA2; assay: SPR; 2.5 nM SsoPCNA1
MsePCNA2 [16] = target: T2, MsePCNA2; assay: SPR; 2.5 nM SsoPCNA1
SsoPCNA2 [17] = target: T1, SsoPCNA2; assay: SPR; 2.5 nM SsoPCNA1
MsePCNA2 [18] = target: T2, MsePCNA2; assay: SPR; 2.5 nM SsoPCNA1
SsoPCNA2 [19] = target: T1, SsoPCNA2; assay: SPR; 0.61 nM SsoPCNA1
MsePCNA2 [20] = target: T2, MsePCNA2; assay: SPR; 0.61 nM SsoPCNA1
SsoPCNA2 [21] = target: T1, SsoPCNA2; assay: SPR; 5 nM SsoPCNA1
MsePCNA2 [22] = target: T2, MsePCNA2; assay: SPR; 5 nM SsoPCNA1
SsoPCNA2 [23] = target: T1, SsoPCNA2; assay: SPR; 0.61 nM SsoPCNA1
MsePCNA2 [24] = target: T2, MsePCNA2; assay: SPR; 0.61 nM SsoPCNA1

B1: SsoPCNA1 (natural protein)
chain: MFKIVYPNAKDFFSFINSITNVTDSIILNFTEDGIFSRHLTEDKVLMAIMRIPKDVLSEYSIDSPTSVKLDVSSVKKILSKASSKKATIELTETDSGLKIIIRDEKSGAKSTIYIKAEKGQVEQLTEPKVNLAVNFTTDESVLNVIAADVTLVGEEMRISTEEDKIKIEAGEEGKRYVAFLMKDKPLKELSIDTSASSSYSAEMFKDAVKGLRGFSAPTMVSFGENLPMKIDVEAVSGGHMIFWIAPRL
Kd (SsoPCNA2 [1]): 0.602 nM | Kd (MsePCNA2 [2]): 1.57 nM | Kd (SsoPCNA2 [3]): 0.65 nM | koff (SsoPCNA2 [3]): 0.00015 s⁻¹ | kon (SsoPCNA2 [3]): 250000 M⁻¹ s⁻¹ | koff (SsoPCNA2 [4]): 0.000163 s⁻¹ | koff (MsePCNA2 [5]): 0.000472 s⁻¹ | Kd (MsePCNA2 [6]): 2.14 nM | koff (SsoPCNA2 [7]): 0.000182 s⁻¹ | koff (MsePCNA2 [8]): 0.000501 s⁻¹ | koff (SsoPCNA2 [9]): 3.07e-05 s⁻¹ | koff (MsePCNA2 [10]): 9.46e-05 s⁻¹ | Kd (SsoPCNA2 [11]): 0.116 nM | Kd (MsePCNA2 [12]): 2.67 nM | Kd (MsePCNA2 [13]): 1.63 nM | koff (SsoPCNA2 [14]): 0.000134 s⁻¹ | koff (SsoPCNA2 [15]): 0.000171 s⁻¹ | koff (MsePCNA2 [16]): 0.000512 s⁻¹ | Kd (SsoPCNA2 [17]): 0.473 nM | Kd (MsePCNA2 [18]): 1.41 nM | koff (SsoPCNA2 [19]): 0.000172 s⁻¹ | koff (MsePCNA2 [20]): 0.000528 s⁻¹ | koff (SsoPCNA2 [21]): 0.000173 s⁻¹ | koff (MsePCNA2 [22]): 0.000505 s⁻¹ | Kd (SsoPCNA2 [23]): 0.383 nM | Kd (MsePCNA2 [24]): 1.21 nM
